Experiment [1] concerns the target T1, phosphorylated Villin (UniProt P09327).
T1 sequence (tyrosine phosphorylated by expression in E. coli TKX1; sites not stated, looked up): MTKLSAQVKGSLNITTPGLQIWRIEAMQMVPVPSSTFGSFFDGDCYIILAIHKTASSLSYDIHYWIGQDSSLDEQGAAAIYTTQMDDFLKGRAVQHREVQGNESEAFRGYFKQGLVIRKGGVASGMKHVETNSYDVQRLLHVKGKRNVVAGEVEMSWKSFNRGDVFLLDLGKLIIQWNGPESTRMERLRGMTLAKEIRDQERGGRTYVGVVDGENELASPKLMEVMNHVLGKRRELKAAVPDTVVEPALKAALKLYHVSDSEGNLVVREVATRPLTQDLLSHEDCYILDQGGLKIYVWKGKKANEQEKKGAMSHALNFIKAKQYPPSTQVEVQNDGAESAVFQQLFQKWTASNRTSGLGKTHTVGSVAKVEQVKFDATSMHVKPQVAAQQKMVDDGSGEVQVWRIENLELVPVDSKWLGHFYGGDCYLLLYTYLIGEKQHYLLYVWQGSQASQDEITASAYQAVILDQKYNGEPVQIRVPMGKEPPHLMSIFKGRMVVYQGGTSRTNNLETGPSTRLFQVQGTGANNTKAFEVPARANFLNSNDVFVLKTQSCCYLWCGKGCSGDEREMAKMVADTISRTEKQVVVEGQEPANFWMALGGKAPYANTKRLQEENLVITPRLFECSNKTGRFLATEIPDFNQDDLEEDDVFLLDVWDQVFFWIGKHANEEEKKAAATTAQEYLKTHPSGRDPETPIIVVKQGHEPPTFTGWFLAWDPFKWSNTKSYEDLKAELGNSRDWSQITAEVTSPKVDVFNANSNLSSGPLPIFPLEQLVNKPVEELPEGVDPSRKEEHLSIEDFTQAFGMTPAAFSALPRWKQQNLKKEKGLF
The experiment is described as follows: multiplate ELISA, P-Villin coated, GST-Jak3-G257 titrated, anti-GST detection.

The target of experiment [2] is phosphorylated adapter protein p52ShcA (UniProt P29353). In words: multiplate ELISA, comparison of Kd values.
The target is the same in experiment [3]. In words: multiplate ELISA, P-p52ShcA coated, GST-P-Jak3 titrated, anti-GST detection.
The target in experiment [4] is T1, phosphorylated Villin. In words: multiplate ELISA, P-Villin coated, GST-P-Jak3 titrated, anti-GST detection, GST-alone control subtracted.

2 substances from patent publication US20160223545A1 can be followed below.

“GST-truncated Jak3 fusion protein lacking the JH1, JH2, JH3 and JH4 domains” came in with a dissociation constant Kd in the experiment with phosphorylated Villin [1] of 40 nM.

In experiment [2], “phosphorylated GST-WT-Jak3 fusion protein (enzyme)” showed a fold weaker than P-Jak3 binding with P-Villin of 10 fold. Further, the Kd in experiment [3] was determined as 220 nM; in the experiment with phosphorylated Villin [4], 23 nM.

One may read the Kd as the constant that tells how readily two partners part at equilibrium. A lower Kd goes with a tighter complex.
